Laboratory results taken from PMC3316571.

Target: Notch-1 (endogenous; p300 or p120 not told) (human (endogenous in HeLa and BxPC3)) (UniProt P46531)
Assay: co-IP; HA-tagged c-Src wild type, Y416F or Y527F transiently transfected in HeLa; whole-cell lysate, IP with anti-Notch-1, blot with anti-HA and anti-Notch-1

## HA-tagged c-Src Y416F (kinase dead) (enzyme)
  fold reduction of binding against wild type c-Src: > 3 fold
